The test system of data set [1] is OC[C@H]1O[C@@](CO)(O[C@H]2O[C@H](CO)[C@@H](O)[C@H](O)[C@H]2O)[C@@H](O)[C@@H]1O. The data set can be described thus: HPLC of 4-methylumbelliferone glucoside, initial velocities, Lineweaver-Burk fit. Type of data set: biochemical, Deinococcus geothermalis. The conditions noted are these: donor, 0.4-200 mM, 1 mM 4-methylumbelliferone as acceptor, 50 mM Tris-HCl pH 8.0, 45°C. The text has this:
(§1) HPLC of 4-methylumbelliferone glucoside, initial velocities, Lineweaver-Burk fit on DgAS (WT DgAS)

The next data set deals with Cc1cc(=O)oc2cc(O)ccc12. Described as above. Type of data set: biochemical, Deinococcus geothermalis. The settings on record: acceptor, 0.1-1.0 mM, 200 mM sucrose as donor, 50 mM Tris-HCl pH 8.0, 45°C.
From the text: as §1

One may read the Km as the substrate concentration at which the rate is half of its maximum. Broadly, the kcat is the maximal rate divided by the concentration of active sites. In general, kcat/Km refers to the turnover number divided by the Michaelis constant. As for “DgAS (WT DgAS) (Deinococcus geothermalis DSM 11300)”, in data set [1], the Km was 36.174 ± 2.037 mM, the kcat came out at 0.1096 s⁻¹ and the kcat/Km amounted to 3.03 M⁻¹ s⁻¹.

With “DgAS (WT DgAS) (Deinococcus geothermalis DSM 11300; A226N)”, in the data set on Cc1cc(=O)oc2cc(O)ccc12, the Km is 2.718 ± 0.655 mM, the kcat stood at 0.28778 s⁻¹ and the kcat/Km was found to be 106 M⁻¹ s⁻¹. For the same substance, in data set [1], the Km stood at 44.570 ± 4.625 mM, the kcat is 0.1139 s⁻¹ and the kcat/Km is 2.55 M⁻¹ s⁻¹.

The values are drawn from publication PMC9728394, “Molecular Docking and Kinetic Studies of the A226N Mutant of Deinococcus geothermalis Amylosucrase with Enhanced Transglucosylation Activity” (Journal of Microbiology and Biotechnology, 2020).
